In ChEMBL document CHEMBL4321793, “Can Cysteine Protease Cross-Class Inhibitors Achieve Selectivity?” (J Med Chem, 2019) one finds kcat/Km data, which are given here for two proteins.

Compound in series [1]: N=C(N)NCCC[C@H](NC(=O)OCc1ccccc1)C(=O)N[C@@H](CCCNC(=N)N)C(=O)Nc1ccc2ccc(=O)oc2c1
The series can be described thus: (§1) Inhibition of Trypanosoma cruzi cruzipain assessed as ratio of Kcat/Km using Z-Phe-Arg-MCA as substrate by spectrofluorometric method.

Compound in series [2]: N=C(N)NCCC[C@H](NC(=O)[C@H](Cc1ccc(NC(=N)N)cc1)NC(=O)OCc1ccccc1)C(=O)Nc1ccc2ccc(=O)oc2c1
Described as §1.

Compound in series [3]: N=C(N)NCCC[C@H](NC(=O)[C@H](Cc1ccccc1)NC(=O)OCc1ccccc1)C(=O)Nc1ccc2ccc(=O)oc2c1
The series is described as §1.

Compound in series [4]: N=C(N)NCCC[C@H](NC(=O)[C@H](Cc1ccncc1)NC(=O)OCc1ccccc1)C(=O)Nc1ccc2ccc(=O)oc2c1
The description is as §1.

Substrate in series [5]: N=C(N)NCCC[C@H](NC(=O)OCc1ccccc1)C(=O)N[C@@H](CCCNC(=N)N)C(=O)Nc1ccc2ccc(=O)oc2c1
The series can be described thus: (§2) Inhibition of human cathepsin L assessed as ratio of Kcat/Km using Z-Phe-Arg-MCA as substrate by spectrofluorometric method.

Substrate in series [6]: N=C(N)NCCC[C@H](NC(=O)[C@H](Cc1ccc(NC(=N)N)cc1)NC(=O)OCc1ccccc1)C(=O)Nc1ccc2ccc(=O)oc2c1
Described as §2.

Substrate in series [7]: N=C(N)NCCC[C@H](NC(=O)[C@H](Cc1ccccc1)NC(=O)OCc1ccccc1)C(=O)Nc1ccc2ccc(=O)oc2c1
The description is as §2.

Substrate in series [8]: N=C(N)NCCC[C@H](NC(=O)[C@H](Cc1ccncc1)NC(=O)OCc1ccccc1)C(=O)Nc1ccc2ccc(=O)oc2c1
The description is as §2.

B1: Cruzipain (Trypanosoma cruzi), P25779 (protein)
chain: MSGWARALLLAAVLVVMACLVPAATASLHAEETLTSQFAEFKQKHGRVYESAAEEAFRLSVFRENLFLARLHAAANPHATFGVTPFSDLTREEFRSRYHNGAAHFAAAQERARVPVKVEVVGAPAAVDWRARGAVTAVKDQGQCGSCWAFSAIGNVECQWFLAGHPLTNLSEQMLVSCDKTDSGCSGGLMNNAFEWIVQENNGAVYTEDSYPYASGEGISPPCTTSGHTVGATITGHVELPQDEAQIAAWLAVNGPVAVAVDASSWMTYTGGVMTSCVSEQLDHGVLLVGYNDSAAVPYWIIKNSWTTQWGEEGYIRIAKGSNQCLVKEEASSAVVGGPGPTPEPTTTTTTSAPGPSPSYFVQMSCTDAACIVGCENVTLPTGQCLLTTSGVSAIVTCGAETLTEEVFLTSTHCSGPSVRSSVPLNKCNRLLRGSVEFFCGSSSSGRLADVDRQRRHQPYHSRHRRL
Turning to B1, the specificity constant (kcat/Km) (commonly the turnover number divided by the Michaelis constant) in series [1] worked out at 395000 M⁻¹ s⁻¹; in series [2], 1.1e+06 M⁻¹ s⁻¹; in series [3], 9.67e+06 M⁻¹ s⁻¹; in series [4], 6.95e+06 M⁻¹ s⁻¹.

B2: Procathepsin L (Homo sapiens) (protein)
chain: MNPTLILAAFCLGIASATLTFDHSLEAQWTKWKAMHNRLYGMNEEGWRRAVWEKNMKMIELHNQEYREGKHSFTMAMNAFGDMTSEEFRQVMNGFQNRKPRKGKVFQEPLFYEAPRSVDWREKGYVTPVKNQGQCGSCWAFSATGALEGQMFRKTGRLISLSEQNLVDCSGPQGNEGCNGGLMDYAFQYVQDNGGLDSEESYPYEATEESCKYNPKYSVANDTGFVDIPKQEKALMKAVATVGPISVAIDAGHESFLFYKEGIYFEPDCSSEDMDHGVLVVGYGFESTESDNNKYWLVKNSWGEEWGMGGYVKMAKDRRNHCGIASAASYPTV
On to B2, for which the kcat/Km in series [5] is 37000 M⁻¹ s⁻¹; in series [6], 438000 M⁻¹ s⁻¹; in series [7] it was 9.46e+06 M⁻¹ s⁻¹; in series [8], 818000 M⁻¹ s⁻¹.
